Measurements published in article PMC3822574 (Analytical biochemistry, 2013).

Molecular target: T1, LCAT (Homo sapiens, UniProt P04180)
T1 sequence (P04180 25-440): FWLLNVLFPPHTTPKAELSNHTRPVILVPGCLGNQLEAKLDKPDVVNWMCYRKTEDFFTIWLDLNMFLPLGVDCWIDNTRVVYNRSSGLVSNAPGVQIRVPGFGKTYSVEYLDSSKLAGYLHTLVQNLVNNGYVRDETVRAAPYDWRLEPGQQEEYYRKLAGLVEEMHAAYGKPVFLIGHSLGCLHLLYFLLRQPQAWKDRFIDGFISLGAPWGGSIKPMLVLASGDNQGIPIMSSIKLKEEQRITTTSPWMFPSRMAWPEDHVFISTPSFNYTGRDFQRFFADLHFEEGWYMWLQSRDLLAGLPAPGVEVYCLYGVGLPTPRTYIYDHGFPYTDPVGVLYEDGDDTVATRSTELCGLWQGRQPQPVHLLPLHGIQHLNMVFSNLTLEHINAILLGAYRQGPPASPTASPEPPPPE
Assay: Assay of LCAT activity in plasma with HDL-mimetic substrate
Format: biochemical
Conditions: rhLCAT in buffer; 2 μL with 100 μL HMS (100 μM DHE), 2 hours

Slope of activity versus rhLCAT concentration: 5 nmol/µg/h
Substance: rhLCAT: Recombinant human LCAT purified from the medium of a stably transfected HEK293F cell clone
